“Also recorded” adds a separate entry of the source.
Assays:
[1] = system: Huh7 human liver cell line; assay: Luciferase expression from forskolin-inducible promoters, transient transfection of PM-RQ plasmid in Huh7; assay type: cell-based; set-up: luciferase activity following induction / fold induction of promoter (luciferase activity): dose or concentration left out as unconfirmed
Experimental: (§1) Luciferase readouts were normalised to β-galactosidase to produce normalised relative luminometer units (RLUs). β-galactosidase containing pcDNA6 plasmid was used as internal control for transfection efficiency (Thermofisher, V22020). β-galactosidase activity was measured as per manufacturer's instructions (Mammalian βGalactosidase Assay Kit, 75707/75710, Thermo Scientific) using 25 μl of lysate. 25 μl of lysate was transferred into a microplate well and mixed with 25 μl of β-galactosidase Assay Reagent, equilibrated to room temperature. The mixture was incubated at 37° C. for 30 min and absorbance measured at 405 nm.
(§2) The forskolin-inducible promoters were initially used to drive expression of luciferase in the Huh7 human liver cell line and the C2C12 […]. The promoter constructs were used to drive expression of luciferase in the PM-RQ plasmid. The tested promoters were synthesised directly upstream of the ATG of PM-RQ plasmid.
• Huh7 cells which are a human liver cell line • DPBS: without CaCl2, without MgCl2 (Gibco, 14190-094) • DMEM (Sigma, D6546) • FBS (Sigma, F9665) • Pen-Strep (Sigma, P4333) • Promega Fugene-HD (E2311) • Forskolin (Sigma, F6886) • NKH477 (Sigma, N3290) • LARII (Dual Luciferase Reporter 1000 assay system, Promega, E1980) • 48 well plates flat bottom (353230, Corning) • Trypsin-EDTA (25200-056, Gibco) • T25 & T75 flask (353108, 353136, Corning) • 15 ml Falcon tubes (430791, Corning) • Stripettes 5 ml, 10 ml and 25 ml (4101,4051,4251, Corning)
Cells were seeded onto a 48 well plate at a density of 25,000 cells/300 μl
• On the day of transfection, DNA to be transfected was diluted to a 100 ng/μl stock solution. DNA to be transfected was the RTV-017, RTV-019 or CMV-IE promoter driving luciferase in the PM-RQ plasmid. • Per 48 well transfection, 45 ng of DNA was mixed with 4.1 μl of Optimem medium. • 0.5 μl of […] was mixed with 4 μl of Optimem medium. • These 2 solutions were mixed and incubated at room temperature for 15 minutes. • The final solution was then added to the well drop wise. • 3 hrs after transfection the inducer was added to the appropriate wells at the indicated concentration. Inducer was forskolin at […].
• 24 hrs after induction, the luciferase activity was measured as described below.
• Luciferase activity was measured using LARII (Dual Luciferase Reporter 1000 assay system, Promega, E1980) • 24 hours after induction, the media was removed from the cells • The cells were washed once in 300 μl of DPBS. • Cells were lysed using 100 μl of passive lysis buffer and incubated with rocking for 15 minutes. • The cell debris was pelleted by centrifugation of the plate at max speed in a benchtop centrifuge for 1 min • For luciferase, 10 μl sample was transferred into white 96-well plate and luminescence measured by injection of 50 μl of LARII substrate
RTV-017 and RTV-019 were transiently transfected into the human liver cell line Huh7 (FIG. 2). RTV-019 was transiently transfected into the […] C2C12 (FIG. 3). The activity of the promoters was assessed using luciferase activity. The luciferase activity was measured with and without the presence of […] forskolin.

[2] = system: C2C12 human muscle cell line; assay: Luciferase expression from forskolin-inducible promoter, transient transfection in differentiated C2C12; assay type: cell-based
Experimental: as §1, §2
• Media was prewarmed at 37° C. before use • C2C12 Complete Medium was used to grow the cells before differentiation. […]
C2C12 cells were maintained at 37° C., 5% CO2. […] Detachment was monitored under the microscope. • 4 ml C2C12 Complete Medium was added to inactivate Trypsin and the cells were transferred into a 15 ml tube. • The cells were centrifuged for 3 mins at 250 RCF at room temperature. • The supernatant was aspirated • The cells were resuspended by gentle pipetting up and down in 6 ml C2C12 Complete Medium • The cells were counted in a haemocytometer by using trypan blue (Thermofisher, 15250061) to determine the how many of the cells were alive. Trypan blue stains dead cells in blue and this allows for them not to be counted. The cells were resuspended into trypan blue in ration of 1:10, e.g. 10 μl cells and 90 μl trypan blue and counted using a haemocytometer. • The cells were seeded in complete medium at a density dependent on the passage number. […] The abovementioned densities are experimentally determined for efficient differentiation and transfection. […]

B1: RTV-019: synthetic forskolin-inducible promoter, SEQ ID NO: 44; 3× ATF6, 4× AP1(1) and 3× HRE1 TFBS and CMV-MP (nucleic acid)
DNA: TGACGTGCTGATGATGCGTAGCTAGTAGTTGACGTGCTGATGATGCGTAGCTAGTAGTTGACGTGCTGATGATGCGTAGCTAGTAGTTGAGTCAGATGATGCGTAGCTAGTAGTTGAGTCAGATGATGCGTAGCTAGTAGTTGAGTCAGATGATGCGTAGCTAGTAGTTGAGTCAGATGATGCGTAGCTAGTAGTCTGCACGTAGATGATGCGTAGCTAGTAGTCTGCACGTAGATGATGCGTAGCTAGTAGTCTGCACGTAGATGATGCGTAGCTAGTAGTGCAGTTAGCGTAGCTGAGGTACCGTCGACGATATCGGATCCAGGTCTATATAAGCAGAGCTCGTTTAGTGAACCGTCAGATCGCCTAGATACGCCATCCACGCTGTTTTGACCTCCATAGAAGATCGCCACC
modifications: Synp-RTV-019
notes: 3× ATF6, 4× AP1(1) and 3× HRE1 TFBS and CMV-MP
luciferase activity without induction (background) ([1]; Huh7, before addition of forskolin): low background activity | luciferase activity following induction ([1]; Huh7, forskolin): high activity; also recorded: much higher activity | fold induction of promoter (luciferase activity) ([1]; Huh7 liver cells, PM-RQ plasmid, forskolin, 24 hrs after induction): 24 fold | luciferase activity following induction ([2]; C2C12, 20 µM forskolin): high activity; also recorded: much higher activity | luciferase activity without induction (background) ([2]; C2C12, before addition of forskolin): low background activity | fold activation of promoter (luciferase activity) ([2]; C2C12 muscle cells, 20 µM forskolin, 24 hrs): 6 fold

Reference: patent US20230167458A1, “FORSKOLIN-INDUCIBLE PROMOTERS AND HYPOXIA-INDUCIBLE PROMOTERS” (ASKLEPIOS BIOPHARMACEUTICAL, INC., priority 2020, published 2023)
